Data on 14 molecules can be found in patent publication US20250043001A1 (Xencor, published 2025).

Substitutions are numbered along the chain they refer to.

For test [1], the target named is T1, human CD28 (human, UniProt P10747 19-152).
T1 construct: also called Cluster of Differentiation 28; Tp44
The test can be described thus: affinity; method not given.

Test [2] addresses T2, CEACAM5 (UniProt P06731 35-685).
T2 construct: also called carcinoembryonic antigen-related cell adhesion molecule 5; CD66e
T2 sequence (looked up): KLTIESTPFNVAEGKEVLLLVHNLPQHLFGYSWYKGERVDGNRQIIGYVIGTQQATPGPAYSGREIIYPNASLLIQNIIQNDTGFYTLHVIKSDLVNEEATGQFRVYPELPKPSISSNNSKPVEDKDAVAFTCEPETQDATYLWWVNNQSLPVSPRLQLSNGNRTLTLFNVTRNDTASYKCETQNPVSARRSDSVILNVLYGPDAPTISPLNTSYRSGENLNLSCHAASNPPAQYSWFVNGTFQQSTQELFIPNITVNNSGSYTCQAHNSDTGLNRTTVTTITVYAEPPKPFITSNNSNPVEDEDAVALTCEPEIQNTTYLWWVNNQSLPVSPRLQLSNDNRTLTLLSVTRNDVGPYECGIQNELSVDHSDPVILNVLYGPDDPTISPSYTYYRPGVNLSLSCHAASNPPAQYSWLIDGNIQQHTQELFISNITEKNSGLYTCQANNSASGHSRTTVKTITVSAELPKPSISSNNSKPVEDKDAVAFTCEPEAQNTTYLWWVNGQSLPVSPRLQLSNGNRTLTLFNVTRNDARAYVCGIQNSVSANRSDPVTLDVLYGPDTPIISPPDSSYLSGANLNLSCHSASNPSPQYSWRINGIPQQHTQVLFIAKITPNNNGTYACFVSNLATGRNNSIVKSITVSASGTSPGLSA
The test can be described thus: affinity at 25 C (Octet per FIG. 79 legend).

Test [3] concerns the target T2, CEACAM5. Nature of the test: CEACAM5 affinity as quoted in the text; method not given.
Test [4] has as its target T2, CEACAM5. Nature of the test: binding affinity (Octet at 25 C per FIG. 80 legend).
Test [5] has as its target T3, CEACAM8 (UniProt P31997 35-320).
T3 sequence (looked up): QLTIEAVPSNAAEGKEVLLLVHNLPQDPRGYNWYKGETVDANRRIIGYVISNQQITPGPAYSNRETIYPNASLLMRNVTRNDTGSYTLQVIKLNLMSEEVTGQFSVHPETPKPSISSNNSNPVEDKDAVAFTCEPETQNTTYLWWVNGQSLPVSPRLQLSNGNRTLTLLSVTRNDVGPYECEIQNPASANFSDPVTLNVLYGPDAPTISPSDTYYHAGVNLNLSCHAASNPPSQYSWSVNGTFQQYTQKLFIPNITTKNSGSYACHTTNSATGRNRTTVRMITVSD
The description is as above.

The target in test [6] is T4, STEAP1 (UniProt Q9UHE8 1-339, limits assumed).
T4 construct: whole, on cells; also called Six-Transmembrane Epithelial Antigen of the Prostate 1
The test can be described thus: flow cytometry, bivalent mAbs on C4-2B cells. As to the method: Optimized humanized STEAP-A variants were then engineered in order to improve their binding affinity to STEAP-1. In the first round, 82 variant VLs were engineered as L1.4-L1.85 and 151 variant VHs were engineered as H1.39-H1.189. Variants were produced as bivalent mAbs, the sequences for which are depicted in FIG. 30. The bivalent mAbs were then screened for binding to STEAP-1 on C4-2B cells. Cells were mixed with mAbs and incubated for 1 hour on ice, washed with PBS, stained with secondary antibody for 1 hour on ice, and washed again before analyzing binding utilizing flow cytometry.
In the second round, 34 variant VLs were engineered and designated as L1.86-L1.119 and 39 variant VHs were engineered and designated as H1.190-H1.228. Bivalent mAbs from the second round of affinity maturation were also screened for binding to STEAP-1 expressed on C4-2B cells. Flow cytometry analysis was used to determine relative maximum MFI values, AUC values, and approximate EC50 values for each test article, as summarized in FIG. 34. […] A final set of variable heavy domain substitutions were engineered and designated H1.229- H1.232. […] Sequences for each variant VH and VL are depicted in FIGS. 31 and 32, respectively.

The target of test [7] is T1, human CD28. Nature of the test: CD28 affinity of the scFv arm as quoted in the text; method not given.
For test [8], the target named is T1, human CD28. Nature of the test: CD28 affinity as quoted in the text; method not given.

B1: 1A7_H1.14_L1 (antibody, V domains shown)
VH: EVQLLESGGGLVQPGGSLRLSCAASGFTFSSYYMSWVRQAPGKGLEWVSTISESGDSTYYADSVKGRFTISRDNSKNTLYLQMNSLRAEDTAVYYCAKSGPGLRQVGFDYWGQGTLVTVSS
VL: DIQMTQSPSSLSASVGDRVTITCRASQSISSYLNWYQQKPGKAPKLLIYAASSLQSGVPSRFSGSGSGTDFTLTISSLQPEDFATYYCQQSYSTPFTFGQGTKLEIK
notes: Anti-CD28 VH/VL pair; also called 1A7[CD28]_H1.14_L1
In turn, B1 yielded a Kd in test [1] of around 200 nM.

B2: CEA-A_H1L2 (antibody, V domains shown)
VH: EVQLVESGGGLVQPGGSLRLSCATSGFTFTDYYMNWVRQAPGKALEWVGFIGNKANGYTTEYSASVKGRFTISRDKSKSSLYLQMNSLKTEDTAVYYCTRDRGLRFYFDYWGQGTLVTVSS
VL: EIVLTQSPATLSLSPGERATLSCRASSSVTYIHWYQQKPGQAPRLLIYATSNLASGIPARFSGSGSGTDFTLTISSLEPEDFAVYYCQHWSSKPPTFGGGTKVEIK
notes: also called HIL2
With B2, in test [2], the Kd lay in the range of 57 to 69 nM.

B3: XENP44745 (bispecific antibody)
chain 1: B2 VH
chain 2: B2 VL with E1Q, I2T, A42S, L45S, I57V, F70Y
chain 3: not shown
On to B3, for which, in test [3], binding was characterised by a dissociation constant (Kd) of 5 nM.

B4: XENP44746 (bispecific antibody)
chain 1: B2 VH
chain 2: B2 VL
chain 3: not shown
For B4, in test [3], the Kd turned out to be 57 nM.

B5: CEA-A_H1.7_L2.15 (antibody, V domains shown)
VH: B2 VH with T24A, A44G, G57A
VL: B2 VL with R44K, L45S
As to B5, the dissociation constant (Kd) stood at 13 nM in test [4] and 3330 nM in test [5].

B6: CEA-A_H1L1 (antibody, V domains shown)
VH: B2 VH
VL: B2 VL with E1Q, I2T, A42S, L45S, I57V, F70Y
notes: also called humanized H1L1
For the molecule B6, the Kd in test [2] lay within 5 to 8 nM.

B7: XENP46500 (antibody, human IgG1, kappa, V domains shown)
VH: QVQVQESGPGLVKPSQTLSLTCTVSGYSITSDYAWNWIRQPPGKKLEWIGYISNSGSTSYNPSLKSRVTISRDTSKNQFSLKLSSVTAADTAVYYCARERNYDYELYYYAMDYWGQGTLVTVSS
VL: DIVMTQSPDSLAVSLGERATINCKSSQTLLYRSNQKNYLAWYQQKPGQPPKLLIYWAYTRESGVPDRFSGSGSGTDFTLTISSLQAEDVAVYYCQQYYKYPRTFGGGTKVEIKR
notes: also called H1.21 and L1.115; copies: 2 + 2
With B7, the binding result in test [6] is given as “binds”.

B8: XENP45835 (antibody, V domains shown)
VH: B7 VH with E105D, L106D
VL: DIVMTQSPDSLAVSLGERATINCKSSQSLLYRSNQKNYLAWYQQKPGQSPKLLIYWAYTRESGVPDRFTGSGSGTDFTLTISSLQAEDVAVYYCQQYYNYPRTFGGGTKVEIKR
notes: also called L1.56; H1 and L1.56; copies: 2 + 2
On to B8, for which, in test [6], the binding result is listed as “binds”.

B9: XENP44332 (bispecific antibody)
heavy: EVKLVESGGGLVQPGGSLRLSCATSGFTFTDYYMNWVRQPPGKALEWLGFIGNKANGYTTEYSASVKGRFTISRDKSQSILYLQMNTLRAEDSATYYCTRDRGLRFYFDYWGQGTTLTVSSASTKGPSVFPLAPSSKSTSGGTAALGCLVKDYFPEPVTVSWNSGALTSGVHTFPAVLQSSGLYSLSSVVTVPSSSLGTQTYICNVNHKPSDTKVDKKVEPKSCDKTHTCPPCPAPPVAGPSVFLFPPKPKDTLMISRTPEVTCVVVDVKHEDPEVKFNWYVDGVEVHNAKTKPREEEYNSTYRVVSVLTVLHQDWLNGKEYKCKVSNKALPAPIEKTISKAKGQPREPQVYTLPPSREEMTKNQVSLTCDVSGFYPSDIAVEWESDGQPENNYKTTPPVLDSDGSFFLYSKLTVDKSRWEQGDVFSCSVMHEALHNHYTQKSLSLSPGK
scFv-Fc: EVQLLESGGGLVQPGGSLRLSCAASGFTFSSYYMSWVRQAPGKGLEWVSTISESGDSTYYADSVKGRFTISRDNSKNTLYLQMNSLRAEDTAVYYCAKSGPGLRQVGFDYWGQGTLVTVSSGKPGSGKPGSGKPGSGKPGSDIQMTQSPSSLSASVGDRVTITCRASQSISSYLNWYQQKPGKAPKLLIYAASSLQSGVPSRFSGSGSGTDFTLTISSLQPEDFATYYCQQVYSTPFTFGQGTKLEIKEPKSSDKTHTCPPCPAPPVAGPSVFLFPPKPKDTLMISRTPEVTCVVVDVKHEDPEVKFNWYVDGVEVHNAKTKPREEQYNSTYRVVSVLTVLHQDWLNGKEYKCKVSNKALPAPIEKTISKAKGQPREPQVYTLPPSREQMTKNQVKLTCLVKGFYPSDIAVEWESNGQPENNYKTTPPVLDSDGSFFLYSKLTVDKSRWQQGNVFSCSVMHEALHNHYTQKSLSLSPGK
light: QTVLSQSPAILSASPGEKVTMTCRASSSVTYIHWYQQKPGSSPKSWIYATSNLASGVPARFSGSGSGTSYSLTISRVEAEDAATYYCQHWSSKPPTFGGGTKLEIKRTVAAPSVFIFPPSDEQLKSGTASVVCLLNNFYPREAKVQWKVDNALQSGNSQESVTEQDSKDSTYSLSSTLTLSKADYEKHKVYACEVTHQGLSSPVTKSFNRGEC
As for B9, binding in test [7] was characterised by a dissociation constant (Kd) of 37 nM.

B10: XENP44338 (bispecific antibody)
heavy: B9 heavy
scFv-Fc: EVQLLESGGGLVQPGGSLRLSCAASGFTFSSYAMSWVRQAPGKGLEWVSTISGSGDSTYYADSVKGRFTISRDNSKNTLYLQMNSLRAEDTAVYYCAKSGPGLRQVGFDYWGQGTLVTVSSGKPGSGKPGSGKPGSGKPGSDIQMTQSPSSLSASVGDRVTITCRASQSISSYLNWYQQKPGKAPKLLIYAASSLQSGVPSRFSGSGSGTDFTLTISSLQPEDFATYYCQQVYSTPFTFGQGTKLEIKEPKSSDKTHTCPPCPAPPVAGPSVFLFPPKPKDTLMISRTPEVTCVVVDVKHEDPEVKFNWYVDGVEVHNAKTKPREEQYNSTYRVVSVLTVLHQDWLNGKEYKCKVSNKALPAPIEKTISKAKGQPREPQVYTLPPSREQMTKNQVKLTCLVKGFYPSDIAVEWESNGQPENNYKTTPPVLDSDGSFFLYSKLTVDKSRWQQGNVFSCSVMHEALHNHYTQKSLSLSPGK
light: B9 light
As for B10, the Kd in test [3] was around 0.7 nM.

B11: XENP44560 (bispecific antibody)
heavy: B9 heavy
scFv-Fc: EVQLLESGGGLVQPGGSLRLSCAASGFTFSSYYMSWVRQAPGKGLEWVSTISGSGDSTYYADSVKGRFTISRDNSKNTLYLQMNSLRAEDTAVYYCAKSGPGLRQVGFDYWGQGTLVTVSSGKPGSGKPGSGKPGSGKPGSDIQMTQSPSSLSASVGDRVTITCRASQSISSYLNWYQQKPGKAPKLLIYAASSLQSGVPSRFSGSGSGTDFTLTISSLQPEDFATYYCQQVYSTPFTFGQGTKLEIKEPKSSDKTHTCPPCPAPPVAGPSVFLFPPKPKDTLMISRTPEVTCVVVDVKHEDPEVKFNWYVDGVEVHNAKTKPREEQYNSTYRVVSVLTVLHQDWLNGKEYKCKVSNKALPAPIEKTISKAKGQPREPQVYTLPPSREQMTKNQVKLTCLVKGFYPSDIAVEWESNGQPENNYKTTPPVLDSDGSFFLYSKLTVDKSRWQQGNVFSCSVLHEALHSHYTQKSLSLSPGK
light: B9 light
notes: copies: 1 + 1 + 1
Take B11: the Kd in test [7] is 96 nM.

B12: CEA-A_H0L0 (antibody, V domains shown)
VH: EVKLVESGGGLVQPGGSLRLSCATSGFTFTDYYMNWVRQPPGKALEWLGFIGNKANGYTTEYSASVKGRFTISRDKSQSILYLQMNTLRAEDSATYYCTRDRGLRFYFDYWGQGTTLTVSS
VL: QTVLSQSPAILSASPGEKVTMTCRASSSVTYIHWYQQKPGSSPKSWIYATSNLASGVPARFSGSGSGTSYSLTISRVEAEDAATYYCQHWSSKPPTFGGGTKLEIK
notes: also called parental CEA-A
As to B12, in test [2], the Kd is 0.7 to 2 nM.

B13: XENP45915 (bispecific antibody)
heavy: EVQLVESGGGLVQPGGSLRLSCAASGFTFTDYYMNWVRQAPGKGLEWVGFIGNKANAYTTEYSASVKGRFTISRDKSKSSLYLQMNSLKTEDTAVYYCTRDRGLRFYFDYWGQGTLVTVSSASTKGPSVFPLAPSSKSTSGGTAALGCLVKDYFPEPVTVSWNSGALTSGVHTFPAVLQSSGLYSLSSVVTVPSSSLGTQTYICNVNHKPSDTKVDKKVEPKSCDKTHTCPPCPAPPVAGPSVFLFPPKPKDTLMISRTPEVTCVVVDVKHEDPEVKFNWYVDGVEVHNAKTKPREEEYNSTYRVVSVLTVLHQDWLNGKEYKCKVSNKALPAPIEKTISKAKGQPREPQVYTLPPSREEMTKNQVSLTCDVSGFYPSDIAVEWESDGQPENNYKTTPPVLDSDGSFFLYSKLTVDKSRWEQGDVFSCSVLHEALHSHYTQKSLSLSPGK
scFv-Fc: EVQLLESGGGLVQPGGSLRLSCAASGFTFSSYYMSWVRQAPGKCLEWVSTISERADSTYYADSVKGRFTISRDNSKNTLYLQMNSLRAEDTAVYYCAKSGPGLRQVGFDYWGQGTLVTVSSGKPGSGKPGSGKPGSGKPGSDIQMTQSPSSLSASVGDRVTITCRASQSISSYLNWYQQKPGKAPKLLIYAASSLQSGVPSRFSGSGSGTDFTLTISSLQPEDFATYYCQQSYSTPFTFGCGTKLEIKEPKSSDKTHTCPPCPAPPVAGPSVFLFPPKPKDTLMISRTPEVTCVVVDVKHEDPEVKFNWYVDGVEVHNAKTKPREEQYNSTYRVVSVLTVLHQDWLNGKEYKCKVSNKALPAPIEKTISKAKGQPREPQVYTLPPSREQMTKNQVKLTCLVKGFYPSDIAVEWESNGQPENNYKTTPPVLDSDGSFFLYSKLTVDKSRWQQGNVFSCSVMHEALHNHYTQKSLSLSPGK
light: EIVLTQSPATLSLSPGERATLSCRASSSVTYIHWYQQKPGQAPKSLIYATSNLASGIPARFSGSGSGTDFTLTISSLEPEDFAVYYCQHWSSKPPTFGGGTKVEIKRTVAAPSVFIFPPSDEQLKSGTASVVCLLNNFYPREAKVQWKVDNALQSGNSQESVTEQDSKDSTYSLSSTLTLSKADYEKHKVYACEVTHQGLSSPVTKSFNRGEC
In turn, B13 showed a Kd in test [8] of 26 nM.

B14: XENP44915 (bispecific antibody, human IgG1, kappa)
heavy: B13 heavy
scFv-Fc: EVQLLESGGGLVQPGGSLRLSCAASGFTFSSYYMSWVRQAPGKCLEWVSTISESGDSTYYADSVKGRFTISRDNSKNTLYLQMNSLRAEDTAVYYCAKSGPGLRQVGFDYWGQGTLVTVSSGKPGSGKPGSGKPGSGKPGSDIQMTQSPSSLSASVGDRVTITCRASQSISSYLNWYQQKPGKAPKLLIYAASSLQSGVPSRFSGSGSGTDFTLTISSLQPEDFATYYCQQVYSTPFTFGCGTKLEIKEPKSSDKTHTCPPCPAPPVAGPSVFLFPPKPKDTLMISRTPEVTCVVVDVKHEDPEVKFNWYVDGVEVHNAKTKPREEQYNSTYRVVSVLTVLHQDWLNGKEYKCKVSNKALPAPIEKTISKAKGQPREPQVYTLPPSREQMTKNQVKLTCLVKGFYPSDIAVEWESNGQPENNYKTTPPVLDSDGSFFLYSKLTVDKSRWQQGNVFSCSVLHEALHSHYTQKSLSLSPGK
light: B13 light
In test [8], B14 had a Kd of 130 nM.
